The results in this text go back to article PMC10769223.

The experiment concerns the target Galectin-3-binding protein in conditioned media of HEK293T cells expressing rSulf-2 (human (endogenous in HEK293T)) (UniProt Q08380). The experiment in a line: affinity purification with mass spectrometry.
Sequence of UniProt Q08380 (Q08380 19-585): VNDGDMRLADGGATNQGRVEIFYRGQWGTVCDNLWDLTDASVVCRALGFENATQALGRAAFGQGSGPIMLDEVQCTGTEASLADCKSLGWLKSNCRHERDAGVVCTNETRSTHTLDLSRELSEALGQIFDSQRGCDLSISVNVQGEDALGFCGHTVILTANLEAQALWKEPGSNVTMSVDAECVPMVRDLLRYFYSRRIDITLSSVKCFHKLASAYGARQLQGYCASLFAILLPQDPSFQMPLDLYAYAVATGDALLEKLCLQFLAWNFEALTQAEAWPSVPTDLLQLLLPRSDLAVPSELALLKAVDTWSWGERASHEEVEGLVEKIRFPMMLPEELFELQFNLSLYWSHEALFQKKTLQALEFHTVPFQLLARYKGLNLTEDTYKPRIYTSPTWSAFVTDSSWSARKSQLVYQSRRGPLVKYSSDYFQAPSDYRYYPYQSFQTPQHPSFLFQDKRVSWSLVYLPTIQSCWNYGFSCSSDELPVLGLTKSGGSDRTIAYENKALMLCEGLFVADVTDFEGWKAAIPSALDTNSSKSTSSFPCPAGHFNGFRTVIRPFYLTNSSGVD

For “rSulf-2 (HEK293T lentiviral) treated with chondroitinase ABC (enzyme)”, the fold change of the Sulf-2/LG3BP peak-area ratio against the untreated control was found to be 3 fold.
